Target: T1, AcrR (Escherichia coli BW25113) (UniProt P0ACS9)
T1 sequence: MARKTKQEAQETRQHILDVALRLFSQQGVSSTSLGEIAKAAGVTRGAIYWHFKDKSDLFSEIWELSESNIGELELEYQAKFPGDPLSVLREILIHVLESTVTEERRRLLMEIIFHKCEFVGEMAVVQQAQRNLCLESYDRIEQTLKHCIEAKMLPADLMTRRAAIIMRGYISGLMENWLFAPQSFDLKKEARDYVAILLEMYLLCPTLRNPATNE
Experiment: EMSA
Conditions: 10 mM Tris-HCl pH 7.5, 50 mM KCl, 1 mM DTT, 5 mM MgCl2, 1 ug poly(dI-dC), 0.05% NP-40, 5% glycerol, 20 uL with 25 fmol DNA (protein stock in 200 mM NaCl, 20 mM …)

Row | Sequence | binding
1 | CAAAGTAAAGTGGTCAAGCCCCGCGCATAGCGCAAGCTTTGGCAGAAGAAAGGACTAAAGCGCGTTGCGCCAGTGCTGCTCACCTACGAGCAAGATAGTGGATGAGGTACGAAGATGGGTAAATGTAGAAAATAACGTCCTGAACAAATTGTCCATAATATTACAATTATCCGCAGTGTTGCTTCTCGTCATCGCGGATGATAATTGTCCTCGGTAGTTGAACACGCCTGATTTGTATCATAGCTTAAGAATTAACTCAAAATATTTTCACTTCTTTACCTGAGCG (double strand) [mdtUJIp 286 bp] | binds
2 | CTTTGATAGTCATATATTCCACCAGCTATTTGTTAGTGAATAAAAGGTTGCCTGTAAAATTACAAAAACCTTACGCAGCGTCAAGCGGAATCGTGTCAATCATTGCGACAAATCAATCCTGTGCCTAAGCATTACGCGACTGACTCGCCTCACTCTTCCTTTGGGCTTGAGACCACATGGGGTCGGCGCCCCGAATTTTAAAGGGCAATTACGATAAAAATGTGATTTTCATCACGATTTAGGTGCAGC (double strand) [gapAp 249 bp] | no binding
3 | GTGGACTAAATTATCGCCATTACTGCGCTTTAAATGACCTTTATGTTCAATATTTTTTCAATCTAGCAGTGGGTTTTCATTTTTGCAAACTCAATTTAACATTTGACAAACATTTAGTTTGCATACAGATTCGAATGGTGGTCATTATATTTTACGCTTTGATAACGAGCGGAAAACAAACCAAAGGCGAAGAATCATGGAAACCAATATCGTTGAAGTAGAGAAC (double strand) [puuAp 226 bp] | binds
4 | TGTTCATATGTAAACCTCGAGTGTCCGATTTCAAATTGGTCAATGGTCAAAAGTTAATAAACCCATTGCTGCGTTTATATTATCGTCGTGCTATGGTACATACATTCACAAATGTATGTAAATCTAACGCCTGTAAATTCACGAACATATGGCACGAAAAACCAAACAAGAAGCGCAAG (double strand) [acrABp 179 bp] | binds

From publication PMC9769551
